This series deals with the molecule itself. Nature of the series: PELDOR (DEER) spectroscopy; spin-labelled BetP in E. coli polar lipid proteoliposomes (lipid to protein 20:1), 200 mM Tris-HCl pH 7.5 in deuterated water, with 500 mM NaCl or with 300 mM NaCl and 5 mM betaine; Q-band, four-pulse sequence; distance distributions by Tikhonov regularisation.

B1: BetP G450R5/S516R5 in the background of the C252T cys-less variant (spin-labelled glycine betaine symporter BetP of Corynebacterium glutamicum) (natural protein, UniProt P54582 1-595, looked up)
chain: MTTSDPNPKPIVEDAQPEQITATEELAGLLENPTNLEGKLADAEEEIILEGEDTQASLNWSVIVPALVIVLATVVWGIGFKDSFTNFASSALSAVVDNLGWAFILFGTVFVFFIVVIAASKFGTIRLGRIDEAPEFRTVSWISMMFAAGMGIGLMFYGTTEPLTFYRNGVPGHDEHNVGVAMSTTMFHWTLHPWAIYAIVGLAIAYSTFRVGRKQLLSSAFVPLIGEKGAEGWLGKLIDILAIIATVFGTATSLGLGALQIGAGLSAANIIEDPSDWTIVGIVSVLTLAFIFSAISGVGKGIQYLSNANMVLAALLAIFVFVVGPTVSILNLLPGSIGNYLSNFFQMAGRTAMSADGTAGEWLGSWTIFYWAWWISWSPFVGMFLARISRGRSIREFILGVLLVPAGVSTVWFSIFGGTAIVFEQNGESIWGDGAAEEQLFGLLHALPGCQIMGIIAMILLGTFFITSADSASTVMGTMSQHGQLEANKWVTAAWGVATAAIGLTLLLSGGDNALCNLQNVTIVAATPFLFVVIGLMFALVKDLSNDVIYLEYREQQRFNARLARERRVHNEHRKRELAAKRRRERKASGAGKRR
modifications: R5 spin label ((1-oxyl-2,2,5,5-tetramethylpyrrolidin-3-yl)methyl methanethiosulfonate) on the cysteines introduced at positions 450 and 516
notes: Glycine betaine symporter BetP (betaine permease), Corynebacterium glutamicum; expressed from pASK-IBA5betP; cys-less C252T background with cysteines introduced at G450 and S516; also called periplasmic spin label pair; betaine permease
On to B1, for which the binding result is listed as “binds”.

The record behind these values is publication doi:10.1101/307710, “Assignment of the resting state of the secondary active transporter BetP by integrating spectroscopic measurements and molecular simulations” (bioRxiv, 2018).
